Data set [1] concerns the molecule itself. Put plainly: SEC-UV (self-association).
Data set [2] deals with the molecule itself. Nature of the data set: SEC-MALS (self-association). (In general: Size exclusion chromatography separates by hydrodynamic size, large species first.)

B1: 3mCDTa1 (CDTa minus the signal peptide with R302A, E385A and E387D) (enzyme)
chain: MVCNTTYKAPIERPEDFLKDKEKAKEWERKEAERIEQKLERSEKEALESYKKDSVEISKYSQTRNYFYDYQIEANSREKEYKELRNAISKNKIDKPMYVYYFESPEKFAFNKVIRTENQNEISLEKFNEFKETIQNKLFKQDGFKDISLYEPGKGDEKPTPLLMHLKLPRNTGMLPYTNTNNVSTLIEQGYSIKIDKIVRIVIDGKHYIKAEASVVSSLDFKDDVSKGDSWGKANYNDWSNKLTPNELADVNDYMRGGYTAINNYLISNGPVNNPNPELDSKITNIENALKREPIPTNLTVYARSGPQEFGLTLTSPEYDFNKLENIDAFKSKWEGQALSYPNFISTSIGSVNMSAFAKRKIVLRITIPKGSPGAYLSAIPGYAGAYDVLLNHGSKFKINKIDSYKDGTITKLIVDATLIP
Take B1: the binding result in data set [1] is listed as “binds”.

B2: 4mCDTa8 (CDTa minus the signal peptide with S345F, E385Q, E387Q and C2A) (enzyme)
chain: MVANTTYKAPIERPEDFLKDKEKAKEWERKEAERIEQKLERSEKEALESYKKDSVEISKYSQTRNYFYDYQIEANSREKEYKELRNAISKNKIDKPMYVYYFESPEKFAFNKVIRTENQNEISLEKFNEFKETIQNKLFKQDGFKDISLYEPGKGDEKPTPLLMHLKLPRNTGMLPYTNTNNVSTLIEQGYSIKIDKIVRIVIDGKHYIKAEASVVSSLDFKDDVSKGDSWGKANYNDWSNKLTPNELADVNDYMRGGYTAINNYLISNGPVNNPNPELDSKITNIENALKREPIPTNLTVYRRSGPQEFGLTLTSPEYDFNKLENIDAFKSKWEGQALSYPNFIFTSIGSVNMSAFAKRKIVLRITIPKGSPGAYLSAIPGYAGQYQVLLNHGSKFKINKIDSYKDGTITKLIVDATLIP
Regarding B2, in data set [2], the binding result is recorded as “no binding”.
